The record followed here is the supplement of paper PMC10471632, “Protein engineering and iterative multimodule optimization for vitamin B6 production in Escherichia coli” (Nature Communications, 2023).

B1: library; numbered along this chain (parent)
chain: MAELLLGVNIDHIATLRNARGTAYPDPVQAAFIAEQAGADGITVHLREDRRHITDRDVRILRQTLDTRMNLEMAVTEEMLAIAVETKPHFCCLVPEKRQEVTTEGGLDVAGQRDKMRDACKRLADAGIQVSLFIDADEEQIKAAAEVGAPFIEIHTGCYADAKTDAEQAQELARIAKAATFAASLGLKVNAGHGLTYHNVKAIAAIPEMHELNIGHAIIGRAVMTGLKDAVAEMKRLMLEARG

± gives the standard deviation of the averaged measurements.

In this data set the parent is B1. Kind of data set: pyridoxine titer in culture supernatant of strain expressing the PdxJ variant; higher = more PN produced (higher in vivo pathway activity of the PdxJ variant). The conditions noted are these: host strain: E. coli LL006; 48 h; temperature: 37 °C; FM1.4. The procedure, abridged:
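Engineered E. coli MG1655-derived producer strains carried a plasmid-borne pdxJ variant under a constitutive promoter. They were grown in 2 mL FM1.4 glycerol medium in 24 deep-well plates (initial OD600 0.1) for 48 h at 37 °C and 800 rpm, then centrifuged at 6200×g for 5 min. Pyridoxine titer in the supernatant was quantified by reversed-phase HPLC with fluorescence detection. Cultures were run in duplicate, with a wild-type-gene strain as control.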
On to T15I, for which the pyridoxine titer turned out to be 0.373 ± 0.14 mg/L.

Turning to I10L G194C I218L, the pyridoxine titer is 1.45 ± 0.3 mg/L.

As for I10L A23T, the pyridoxine titer worked out at 1.39 ± 0.2 mg/L.

I13V T103L E104T T196C: the pyridoxine titer amounted to 0.233 ± 0.009 mg/L.

Y24I: the pyridoxine titer was 0.0833 ± 0.01 mg/L.

For the variant Y24I E100I, the pyridoxine titer came to 0.81 ± 0.028 mg/L.

H12M T196C: the pyridoxine titer came out at 1.02 ± 0.014 mg/L.

On to V101L E104T A217V, for which the pyridoxine titer worked out at 1.17 ± 0.057 mg/L.

Consider I10L T103L E104T, for which the pyridoxine titer worked out at 8.08 ± 0.54 mg/L.

For the variant I10L T22V A23W E104T, the pyridoxine titer amounted to 2.06 ± 0.39 mg/L.

For the variant A23Y E104T G194C I218L, the pyridoxine titer came out at 0.22 ± 0.013 mg/L.

In the case of I10L E104T, the pyridoxine titer was determined as 1.1 ± 0.48 mg/L.

Turning to I13V T15V L212I, the pyridoxine titer worked out at 0.41 ± 0.13 mg/L.

Take I10L T22V A23T E100I: the pyridoxine titer turned out to be 1.17 ± 0.23 mg/L.

Turning to N213I, the pyridoxine titer is 1.76 ± 0.13 mg/L.

I10L: the pyridoxine titer was 2.82 ± 0.43 mg/L.

As to T22V A23T, the pyridoxine titer stood at 1.74 ± 0.23 mg/L.

Consider A23T T103L L212I, for which the pyridoxine titer is 0.46 ± 0.014 mg/L.

As for I13V E104T T196R L212I, the pyridoxine titer came out at 4.01 ± 0.7 mg/L.

On to V44C G194C N213I I218L, for which the pyridoxine titer is 2.07 ± 0.077 mg/L.

Turning to H155I N213I, the pyridoxine titer came out at 0.26 mg/L.

Consider G21M, for which the pyridoxine titer was 0.428 ± 0.049 mg/L.

With G194C L195I, the pyridoxine titer is 0.26 mg/L.

As to A19Q E104T, the pyridoxine titer amounted to 0.72 ± 0.028 mg/L.

Regarding I219G, the pyridoxine titer worked out at 1.3 ± 0.31 mg/L.

In the case of A23T T196W L212I, the pyridoxine titer was determined as 1.71 ± 0.54 mg/L.

For the variant A23T, the pyridoxine titer came out at 0.981 ± 0.014 mg/L.

Turning to G7L I154L, the pyridoxine titer is 0.82 ± 0.68 mg/L.

As for A19Q G21M E100I, the pyridoxine titer amounted to 0.47 ± 0.23 mg/L.

Take I10L E104T G194Q I218L: the pyridoxine titer was 1.46 ± 0.011 mg/L.

Consider E100I, for which the pyridoxine titer is 0.906 ± 0.17 mg/L.

In the case of I10L T22V A23T I218M, the pyridoxine titer worked out at 0.2811 ± 0.0013 mg/L.

Regarding I13V V44L E104T T196C, the pyridoxine titer stood at 0.824 ± 0.7 mg/L.

Take A23T I154L: the pyridoxine titer stood at 1.23 ± 0.099 mg/L.

As for I13V V101L E104T T196C, the pyridoxine titer is 1.04 ± 0.83 mg/L.

As for T22V L212I, the pyridoxine titer came out at 0.55 ± 0.13 mg/L.

In the case of I10L G194C T196L I218L, the pyridoxine titer turned out to be 0.562 ± 0.075 mg/L.

On to A23T V44I V101L L212I, for which the pyridoxine titer came out at 8.38 ± 1.2 mg/L.

In the case of I10L E104T I218L, the pyridoxine titer was found to be 3.74 ± 0.56 mg/L.

Consider I13V E100I E104T T196C, for which the pyridoxine titer came to 1.25 ± 0.031 mg/L.

Consider E104T L212I, for which the pyridoxine titer stood at 2.65 ± 0.071 mg/L.

Turning to G7M T196C L212I, the pyridoxine titer is 6.32 ± 1.8 mg/L.

As to T103L T196C L212I, the pyridoxine titer is 0.33 mg/L.

Turning to E100I V101L T196C A217M, the pyridoxine titer came out at 2 ± 0.12 mg/L.

As for H12M A23T, the pyridoxine titer came to 0.58 ± 0.014 mg/L.

For the variant V101L E104T L212I, the pyridoxine titer was found to be 0.49 ± 0.028 mg/L.

I10L A23T E104T: the pyridoxine titer was 6.49 ± 0.071 mg/L.

As to I10L V101L E104T G194Q, the pyridoxine titer is 7.61 ± 0.4 mg/L.

As for G7L I218L, the pyridoxine titer stood at 0.76 mg/L.

Consider I10L D11C A23T, for which the pyridoxine titer was 0.22 ± 0.057 mg/L.

On to I10L V101L E104T, for which the pyridoxine titer stood at 2.46 ± 2 mg/L.

With I13V E100W E104T L212I, the pyridoxine titer worked out at 0.293 ± 0.15 mg/L.

Take I13V: the pyridoxine titer stood at 4.14 ± 0.062 mg/L.

On to E104T G194C T196Y I218L, for which the pyridoxine titer is 0.557 ± 0.059 mg/L.

Consider E100I V101L L212I, for which the pyridoxine titer came out at 0.86 ± 0.3 mg/L.

For T15I A23T, the pyridoxine titer is 0.3 ± 0.014 mg/L.

As to L195I, the pyridoxine titer is 0.848 ± 0.15 mg/L.

Regarding G7W I10L I218L, the pyridoxine titer is 0.2 ± 0.014 mg/L.

For T196C, the pyridoxine titer is 1.21 ± 0.38 mg/L.

A23T G194C T196M I219G: the pyridoxine titer came to 6.96 ± 5.8 mg/L.

Turning to I10L A23T E104T I219C, the pyridoxine titer is 3.27 ± 0.22 mg/L.

Regarding T15I V101L T196C, the pyridoxine titer came to 0.44 mg/L.

Take I13V H155R L212I: the pyridoxine titer was determined as 0.22 ± 0.042 mg/L.

For the variant I10L A23T E104T G194Q, the pyridoxine titer was found to be 0.545 ± 0.21 mg/L.

Turning to V101L L212I, the pyridoxine titer was 0.72 ± 0.042 mg/L.

For A23T G194C I219G, the pyridoxine titer amounted to 0.873 ± 0.37 mg/L.

For V101L T196C, the pyridoxine titer was determined as 2.16 ± 0.085 mg/L.

For the variant L195I T196C, the pyridoxine titer was 0.41 ± 0.014 mg/L.

Turning to G194C T196V N213I I218L, the pyridoxine titer is 2.28 ± 1 mg/L.

Take G21M T196C: the pyridoxine titer amounted to 0.68 ± 0.042 mg/L.

On to I10L T103L, for which the pyridoxine titer was 1.81 ± 0.042 mg/L.

As for I10L A23T T103L, the pyridoxine titer was 0.24 mg/L.

As for E104T G194C I218L, the pyridoxine titer stood at 9.71 ± 0.22 mg/L.

Consider I10L A217V, for which the pyridoxine titer was 0.48 ± 0.028 mg/L.

E100M V101L T196C: the pyridoxine titer was 2.12 ± 0.38 mg/L.

In the case of V101L T196C L212I, the pyridoxine titer was determined as 7.33 ± 0.48 mg/L.

For the variant A19Q G21M, the pyridoxine titer stood at 1.17 ± 0.38 mg/L.

Consider I10L G194C I218L I219L, for which the pyridoxine titer stood at 1.09 ± 0.14 mg/L.

As to I13V E100I L212I, the pyridoxine titer amounted to 6.04 ± 1.9 mg/L.

As for I10L T22V E104T, the pyridoxine titer was 0.875 ± 0.11 mg/L.

T15C A19Q V44I: the pyridoxine titer came to 0.48 ± 0.057 mg/L.

G7L H155I: the pyridoxine titer came to 0.72 ± 0.071 mg/L.
